{"source": "patent US20200179430A1", "about": "“USE OF P2Y1 RECEPTOR AND ANTAGONIST THEREOF IN PREVENTION AND TREATMENT OF DEPRESSION AND/OR ANXIETY DISORDER” (SOUTHERN MEDICAL UNIVERSITY, priority 2017, published 2020)", "key": {"P2Y1 receptor [1]": {"molecular_target": "T1, P2Y1 receptor (Mus musculus, UniProt P49650)", "T1 construct": "from tissue; host or cells: living C57BL/6J mice; brain (lateral ventricle administration, ventral tegmental area) or systemic (intraperitoneal)", "T1 sequence (P49650 whole entry)": "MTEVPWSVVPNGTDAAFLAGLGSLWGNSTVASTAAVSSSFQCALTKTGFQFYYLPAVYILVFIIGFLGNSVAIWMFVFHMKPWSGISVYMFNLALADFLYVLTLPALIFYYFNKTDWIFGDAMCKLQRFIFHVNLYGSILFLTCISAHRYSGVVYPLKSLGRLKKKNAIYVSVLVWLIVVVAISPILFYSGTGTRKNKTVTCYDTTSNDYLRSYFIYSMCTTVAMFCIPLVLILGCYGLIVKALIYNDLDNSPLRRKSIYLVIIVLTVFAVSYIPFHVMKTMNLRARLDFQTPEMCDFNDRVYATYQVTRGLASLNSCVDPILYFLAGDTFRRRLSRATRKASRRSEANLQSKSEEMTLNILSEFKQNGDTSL", "assay": "Forced swimming test (FST) in C57BL/6J mice", "assay_type": "in vivo", "settings": "for anti-depression like behavior (immobility time of swimming within the last 4 minutes): MRS2500 2.5 mg/kg intraperitoneally, FST 30 minutes later, 6 minutes; for immobility time of swimming: lateral ventricle administration, MRS2500 0.1 μM, MRS2179 0.2 μM, 1 μL, vs artificial cerebrospinal fluid control, FIG. 2; for immobility time during the forced swimming test: 0.5 μL shRNA adeno-associated virus at ventral tegmental area, 14 days after injection, vs control virus", "procedure": "Forced swimming test which was proposed by Porsolt in 1977 was applied to the rats at the earliest, and subsequently extended to the mice. The forced swimming test is used to screening for antidepressants which are found to decrease immobility time of the forced swimming mice, and such model is one of the most common-used models for screening for antidepressants at present. The test steps are as follows: experimental mice adapted in an ethology laboratory for at least 60 minutes in advance, and the following test was carried out: an individual mouse was put in a cylinder glass jar (height: 45 cm; diameter: 19 cm) with a water depth of 23 cm at water temperature of 22° C.-25° C., and was subjected to the forced swimming for 6 minutes. Accumulative immobility time within the last 4 minutes was recorded (mainly behaves as stopping struggling, floating upright, or having only small limb movements to keep the head emerge from the water) as an index of tested depression-like behavior. Effect of the antidepressant can shorten the immobility time of the experimental mice.\nExperimental animals: C57BL/6J mice, grade SPF, male, body weight of 20 to 24 g. The animals were provided by the Laboratory Animal Center of Southern Medical University (Guangzhou, China). The mice were put in the SPF grade animal feeding room for feeding in separate cages, with 3 to 4 mice in each cage. The plastic cage has a size of 300 mm×170 mm×120 mm. Room temperature: 24±1° C., light-dark cycle: 12 hours/12 hours, illumination time: 7:00 a.m. to 7:00 p.m., relative humidity: 70% to 85%. The indoor environment was kept quiet and the mice could eat and drink freely. The tests were carried out at 1:00 to 5:00 in the afternoon. Before the test, the mice entered the experimental environment in advance for adaptation and were touched by the experimental personnel for adaptation.\nIn the forced swimming test of the C57BL/6J mice, the animals were divided into 5 groups randomly with 10 mice in each group. The animals in each group were surgically implanted with a medical perfusion tube at the lateral ventricle and fed for seven days for recovery. Then, four groups of animals were subjected to the following treatment respectively: by using a microdose drug delivery system, administering the corresponding reagent: a control solution (artificial cerebrospinal fluid, 1 μL, 1 μL/min), MRS2500 (0.1 μM, 1 μL, 1 μL/min), MRS2179 (0.2 μM, 1 μL, 1 μL/min). After the injection for each group was completed, the forced swimming test was carried out 10 minutes later.\n2.5 mg/kg MRS2500 was intraperitoneally administered to the mice, and 30 minutes later, the mice were subjected to the forced swimming test for 6 minutes. Immobility time of swimming within the last 4 minutes was determined to evaluate the effect of the antidepressant.\nTest method: the animal in each group was micro-injected with 0.5 μL of interfering RNA adeno-associated virus (shRNA) at the ventral tegmental area (angle: 7°, AP: −3.2 mm, ML: 1.0 mm, DV: −4.6 mm) (0.1 μL/min, remaining the needle for 5 minutes after injection), fed for 14 days and subjected to a forced swimming test after the expression recovery of virus. Titer of the P2Y1 specific-interfering shRNA is 1×10^13 v.g/ml, 9.55E+08 copy/μL. Adeno-associated virus type 9 was used to package the virus, with the promoter being U6 and the serotype being AAV9 (packaged by Biowit Company, Shenzhen, China). Sequence information: the forward sequence is shown as SEQ ID NO:1; and the reverse sequence is shown as SEQ ID NO:2."}, "P2Y1 receptor [2]": {"molecular_target": "T1, P2Y1 receptor", "assay": "Chronic social defeat stress model, social interaction test", "assay_type": "in vivo, mice", "settings": "for duration at the interaction area, social interaction test: chronic social defeat stress depressed mice, 14 days after injection of shRNA virus, FIG. 9", "procedure": "The chronic social defeat stress model was carried out referring to the Golden method.\nThe C57BL/6J mice were randomly divided into a control group and a stress group. The C57BL/6J mouse in the stress group was daily put in a cage with a screened CD-1 mouse therein, for 10-minute body contact. As an invader, the C57BL/6J mouse behaved as escape, fear, obedience and the like after being attacked. After the contact, within the 24 hours after they were separated by a transparent and perforate partition, the C57BL/6J mouse could smell, see and hear the CD-1 mouse at the opposite side for mental stress. The C57BL/6J mice took turns daily to guarantee to be subjected to even stress. The test was continued for ten days. The CD-1 mouse in the control group was replaced by another C57BL/6J mouse, and took turns daily, but body contact was avoided. After modeling, the mice were fed in separate cages and were subjected to tube-implant surgery at the lateral ventricle. The control group and the test group were administered the corresponding reagent respectively: a control solution (artificial cerebrospinal fluid, 1 μL, 1 μL/min), MRS2500 (0.1 μM, 1 μL, 1 μL/min). After administration, depression level of the mice was tested by a social interaction test. The social interaction test was divided into two stages, 2.5 minutes for each stage. First stage (no target): the CD-1 mouse was not put in a transparent and perforate organic glass box; the C57BL/6J mice were put at the distal side, and dwell durations thereof at the interaction area and at the corner within 2.5 minutes were recorded. Second stage (target): the CD-1 mouse was put in the transparent and perforate organic glass box; the C57BL/6J mice were put at the distal side, and dwell durations thereof at the interaction area and at the corner within 2.5 minutes were recorded.\nExperimental animals: C57BL/6J mice, grade SPF, male, body weight of 20 to 24 g. The animals were provided by the Laboratory Animal Center of Southern Medical University (Guangzhou, China). […]"}, "P2Y1 receptor [3]": {"molecular_target": "T1, P2Y1 receptor", "assay": "Sucrose preference test of mice modeled by chronic social defeat stress model", "assay_type": "in vivo", "settings": "chronic social defeat stress depressed mice; 14 days after injection of shRNA virus; FIG. 11"}, "P2Y1 receptor [4]": {"molecular_target": "T1, P2Y1 receptor", "assay": "Forced swimming test of mice modeled by chronic social defeat stress model", "assay_type": "in vivo", "settings": "chronic social defeat stress depressed mice, 14 days after injection of shRNA virus, FIG. 10", "procedure": "Forced swimming test which was proposed by Porsolt in 1977 was applied to the rats at the earliest, and subsequently extended to the mice. The forced swimming test is used to screening for antidepressants which are found to decrease immobility time of the forced swimming mice, and such model is one of the most common-used models for screening for antidepressants at present. […] Accumulative immobility time within the last 4 minutes was recorded (mainly behaves as stopping struggling, floating upright, or having only small limb movements to keep the head emerge from the water) as an index of tested depression-like behavior. […]\nThe C57BL/6J mice were randomly divided into a control group and a stress group. […] First stage (no target): the CD-1 mouse was not put in a transparent and perforate organic glass box; the C57BL/6J mice were put at the distal side, and dwell durations thereof at the interaction area and at the corner within 2.5 minutes were recorded. Second stage (target): the CD-1 mouse was put in the transparent and perforate organic glass box; the C57BL/6J mice were put at the distal side, and dwell durations thereof at the interaction area and at the corner within 2.5 minutes were recorded. […]"}, "P2Y1 receptor [5]": {"test_system": "P2Y1 receptor", "assay": "Expression of P2Y1 receptor after intracerebral injection of interfering RNA adeno-associated virus", "assay_type": "in vivo", "settings": "mice injected at ventral tegmental area; vs control group mice", "procedure": "In order to further verify whether the P2Y1 receptor can be used as a target of anti-depression and/or anti-anxiety, and to avoid the compensatory effect that may exist in the conventional knockout mice, P2Y1 receptor specifically-interfering adeno-associated virus was prepared in the present invention to be observed whether the virus affects the depression-like behavior. The mice were intracerebrally injected with a trace amount of the P2Y1 receptor-interfering RNA adeno-associated virus at the ventral tegmental area, and then a forced swimming test was carried out. […] The inventors further used a depression model, chronic social defeat stress model to verify the effect of the P2Y1 receptor specifically-interfering adeno-associated virus. After modeling of the depression model was completed, the mice took a day off, and then were administered the P2Y1 receptor specifically-interfering adeno-associated virus, and two weeks later the mice were subjected to a behavior test. […] In the sucrose preference test, a decreased sucrose preference of the social failure depressed mice was reversed (as shown in FIG. 11). […]"}, "[6]": {"settings": "listed as P2Y1 receptor specifically-interfering adeno-associated virus"}}, "note": "Entries after “also recorded” stand apart in the source; their conditions may differ."}
{"molecule": "CNCCC(Oc1ccc(C(F)(F)F)cc1)c1ccccc1", "note": "(stereo not shown) [Fluoxetine]", "values": [{"measurement": "anti-depression like behavior (immobility time of swimming within the last 4 minutes)", "setting": "P2Y1 receptor [1]; FIG. 1", "result": "anti-depression like behavior"}]}
{"molecule": "CNc1ncnc2c1ncn2[C@H]1C[C@H](OP(=O)(O)O)[C@@H](COP(=O)(O)O)O1", "note": "[MRS2179]", "values": [{"measurement": "immobility time of swimming", "setting": "P2Y1 receptor [1]", "result": "significantly reduce the immobility time; also recorded: significantly shorten the immobility time of swimming"}]}
{"molecule": "CNc1nc(I)nc2c1ncn2[C@H]1C[C@H](OP(=O)(O)O)[C@]2(COP(=O)(O)O)C[C@H]12", "note": "[MRS2500]", "values": [{"measurement": "anti-depression like behavior (immobility time of swimming within the last 4 minutes)", "setting": "P2Y1 receptor [1]; FIG. 1, 2.5 mg/kg", "result": "shows the same anti-depression like behavior as administration of the conventional antidepressant Fluoxetine"}, {"measurement": "immobility time of swimming", "setting": "P2Y1 receptor [1]", "result": "significantly reduce the immobility time; also recorded: significantly shorten the immobility time of swimming"}, {"measurement": "dwell duration at the interaction area (depressive situation)", "setting": "P2Y1 receptor [2]; chronic social defeat stress C57BL/6J mice, single dose MRS2500 0.1 μM, 1 μL, lateral ventricle, FIG. 3", "result": "significantly improved; also recorded: can improve the dwell duration at the interaction area"}]}
{"molecule": "P2Y1-shRNA: P2Y1 specific-interfering shRNA packaged in adeno-associated virus type 9, U6 promoter; sequences SEQ ID NO:1 and SEQ ID NO:2 (nucleic acid) chain 1: GATCCCCAGCCCTCATCTTCTACTACTTCATTCAAGAGATGAAGTAGTAGAAGATGAGGGCTGGTTTTTTAGATCTA chain 2: AGCTTAGATCTAAAAAACCAGCCCTCATCTTCTACTACTTCATCTCTTGAATGAAGTAGTAGAAGATGAGGGCTGGG", "values": [{"measurement": "immobility time during the forced swimming test", "setting": "P2Y1 receptor [1]; FIG. 8", "result": "significantly reduced immobility time"}, {"measurement": "immobility time during the forced swimming test", "setting": "P2Y1 receptor [1]; FIG. 8, listed as P2Y1 receptor-interfering RNA", "result": "obviously decreased immobility time"}, {"measurement": "duration at the interaction area, social interaction test", "setting": "P2Y1 receptor [2]", "result": "enhance the duration at the interaction area"}, {"measurement": "duration at the interaction area, social interaction test", "setting": "P2Y1 receptor [2]; [6]", "result": "situation of the social defeat depressed mice was reversed"}, {"measurement": "sucrose preference", "setting": "P2Y1 receptor [3]", "result": "enhance the decreased sucrose preference"}, {"measurement": "immobility time, forced swimming test", "setting": "P2Y1 receptor [4]", "result": "reduce the increased immobility time"}, {"measurement": "immobility time, forced swimming test", "setting": "P2Y1 receptor [4]; [6]", "result": "returned to the level of the control group"}, {"measurement": "expression of P2Y1 receptor", "setting": "P2Y1 receptor [5]", "result": "significantly decreased the expression of P2Y1 receptor"}]}
